Test results reported in the supplement of paper PMC12764529.
± gives the half width of the 95% confidence interval.

Assay: folding stability dG unfold (combined trypsin and chymotrypsin); higher = more stable
Outline: (§1)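 Bayesian fitting of sequencing counts gave K50 for each design. Unfolding free energy followed by setting this against a sequence-predicted unfolded-state K50 and a shared folded-state K50, either per protease or with trypsin and chymotrypsin combined. The designs, under 80 residues and lacking cysteine, were digested in a PA-tagged cDNA display format at 11 threefold-diluted protease concentrations and without protease, and only those with AlphaFold2 dimer inter-PAE above 15 were kept.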

Sequence	folding stability dG unfold [kcal/mol]
SAGGEMTAEERARRLAERLAEELERRTGRKVEVVSVEVEYDPETDEVTVRIEIRLEDGSTLTIELRLSAGGS [r8_372_TrROS_Hall]	4.33 ± 0.27
SAGMDVKELAKEAMEKYPPGDKEIEFEIPVGPRPFKVKIDYEPDPENGKPRPKITIENPDNGKKTEFTFSAG [r5_236_TrROS]	0.11 ± 0.17
SAGGSAGGSAKPVLEVEITVEVNGKLYKVRARVELEETPDGLVLKVEVELENGEKFEFTLKLSAGGSAGGSA [r18_54_TrROS_Hall]	5.11 ± 0.28
SAPLDPDQAKEQAENIADYFQDEMQDQFGMDPSDIDVDVKVEQEPNGHYRITVEITMGNMPIEMEIYVPSAG [r14_226_TrROS]	1.8 ± 0.12
SKKIKIILRYPDGWYVKAEMEVPNGKERDIWFPNPEEAIEWAKTIARQFNPGVEIEDIETVPPDDLPPNFSA [r9_137_TrROS]	1.61 ± 0.23
SGREEEIAEELREKLLAEGYTEVEVEIEVRPDPNSDNVLVTVTVRATKKDAEGNWKTYEETIPVLIPAEASA [r9_440_JUSTAS]	3.11 ± 0.25
SAGGSAGGSKEVKTIKVEITITDKNGKKITVKAEIVYDKKTKKYYIKIRNKKTNKTYIIELKLSAGGSAGGS [r20_71_TrROS_Hall]	4.47 ± 0.08
SAMKPFPAKEAIEQILEEMEDMPLPPGQEEVEFQIRLPDDGAPVQISIERNPGKWKIEIYVGNKPIWITSAG [r14_199_TrROS]	2.05 ± 0.12
SMKIVIVKNKDGTVIVRITFPNGEEITITAKTEEEAKKAIEELIKKLQEKYNIKIKIEVKPVKPGEVIEESA [r9_786_TrROS_Hall]	2.93 ± 0.15
SAGGSAGGSAGGMTPIEVTVELEEPTRRTTRRFTFTSPEEVEAYLKALPASWRVTRVELRSAGGSAGGSAGG [r17_410_JUSTAS]	1.66 ± 0.075
SAGGSAGGSASMTVRATLPNGEEIEFEADVIKADPGGDSVTVYLILPNGGEIPFEVELEEEESAGGSAGGSA [r18_163_TrMRF]	0.574 ± 0.076
SAEVRTVTDANGTQRTVTKTPDGTETVTTRPVPAPPPPPTVTVEVEYDAENGTLTVRLPDGSKLEFTFEDSA [r9_56_TrROS_Hall]	0.742 ± 0.26
SAGGMKTIEITIKTEDGYTIKIKITEKDGKLYIEIEIEDPNMSEEQREKIKKEIEELAKKLNIKVEIPSAGG [r13_774_TrROS_Hall]	3.14 ± 0.42
SAGGGSTTTYSIPEGPLTLEVTTVTVGDGTVKKTVVTTPEGKRTEIPPSNPITIPPNWTVTSSVTLTSAGGS [r16_669_JUSTAS]	0.0118 ± 0.16
SAGGSAGGSMLVLHLPNGKEIPIPPGEFSEDTGVEDIAARIPPEVRRLRIYNEDGTEVEVPIDSAGGSAGGS [r20_161_TrMRF]	0.32 ± 0.18
SAGGEVKVEIEVELNEDGTLRVRARVEVRVDGELVTVEVEIEVRLEPAPPPAPPPVLVVDPETGEILSAGGS [r8_269_TrROS_Hall]	2.7 ± 0.21

Assay: folding stability dG unfold from trypsin proteolysis; higher = more stable
Outline: as §1

Sequence	folding stability dG unfold [kcal/mol]
SAGGSAIKLPSGVKIEFKKTEDGKYIVRVTLPDGKPIELEFEGDPEGPNNITPEEINDAILEKIKSSAGGSA [r15_780_TrMRF]	2.67 ± 0.11
SAGGSANGYFILIKIEEIKLTKMRRDPDGKQWQWNFSVKIKIEVVKVFRIKPDPNGNWKIEPGDPISAGGSA [r15_162_TrROS]	3.01 ± 0.11
SAGGKKETVKVTLEIEVNGKKYKIELTKNKDGTVTIKITDKNGKKIEIEIPMSPEDVKKLLEELLKKLSAGG [r13_296_TrROS_Hall]	2.17 ± 0.11
SAGGSAGGMKITKIESVEPNPENGMVSLEMKIENGASILIHYNPDNGKVTIMVFKPNEIEPIELSAGGSAGG [r6_796_TrROS]	1.26 ± 0.092
SAKVYRTKDGKEVKVEKKKVKVKTIEIEIEIEMPKELEEKVKKLAEELAKKLAEELNLPPGAKIKITVRSAG [r14_453_TrROS_Hall]	2.54 ± 0.06
SAGTVTIGIWIPADDIEQIKELIRSIAEEHGWEVKVDKIEPNPDGQYFVTVTVENPENGKEIKITIWIPSAG [r5_41_TrROS]	2.98 ± 0.056
SAGGSAGGSAGYKPGEVVYIEVEDPETGKSLKVPVKVPENMTPEQAKKLAEEAAKKYREGSAGGSAGGSAGG [r11_355_TrMRF]	1.57 ± 0.082
SAGGSAGGSAMIEISEEELEKLLAETPEEEAKEVKIERIPDIGLINVTIPSGKVIKVKIKESAGGSAGGSAG [r3_291_JUSTAS]	-0.241 ± 0.11
SAGGEKITIEVDGKKVTITKNEDGTITITIEHNGKVIKTITLPKNLEKITELTLTFNGKTYTITIEPSAGGS [r16_452_TrROS_Hall]	3.9 ± 0.13
SAGGSAGGSAGGSVSVNIPLEELKERVPPSLSVSVSPTPVPEGGGVRVPVTLTSPAELGSAGGSAGGSAGGS [r4_119_JUSTAS]	1 ± 0.031
SAGGSAGGSMKVEIKFPDGSVKTIPLSPEEPDVPPEALVKELGADNVTITYYTPDGVPINLGISAGGSAGGS [r12_411_JUSTAS]	0.297 ± 0.058
SAGGKKKKKKPKIVRVKITLKNENGEEIEIDEAVILPDGTILIRDKKTGKIFEIKLDDITKIEIEEVSAGGS [r8_410_TrROS_Hall]	1.99 ± 0.086
SAGGSAGGSAGGLLEIELPSRRILVELKLELKDGKLVKLEIKVKYEGREPEPLTSPEYKSAGGSAGGSAGGS [r10_1043_TrMRF]	1.71 ± 0.14
SAGGSAGGSAGGSPLVIKVDGPAEKLIEEIKKLFPNAKVLSIETHPDGGVTLVVEKIDESAGGSAGGSAGGS [r4_95_TrMRF]	1.38 ± 0.07
SQWVIKIKFPNPDGEPVKIIFPVEEIQEIFKEEHGEPSSPQEFADRLAKHHPNVDVEIMPLDDMPPEQLNSA [r9_1085_TrROS]	-0.998 ± 0.66
SAGGEMTAEERARRLAERLAEELERRTGRKVEVVSVEVEYDPETDEVTVRIEIRLEDGSTLTIELRLSAGGS [r8_372_TrROS_Hall]	4.86 ± 0.26

Sequence	folding stability dG unfold [kcal/mol]
SAGMDVKELAKEAMEKYPPGDKEIEFEIPVGPRPFKVKIDYEPDPENGKPRPKITIENPDNGKKTEFTFSAG [r5_236_TrROS]	-1.07 ± 0.74
SAGGSAGGSAKPVLEVEITVEVNGKLYKVRARVELEETPDGLVLKVEVELENGEKFEFTLKLSAGGSAGGSA [r18_54_TrROS_Hall]	4.42 ± 0.26
SAPLDPDQAKEQAENIADYFQDEMQDQFGMDPSDIDVDVKVEQEPNGHYRITVEITMGNMPIEMEIYVPSAG [r14_226_TrROS]	1.45 ± 0.11
SKKIKIILRYPDGWYVKAEMEVPNGKERDIWFPNPEEAIEWAKTIARQFNPGVEIEDIETVPPDDLPPNFSA [r9_137_TrROS]	1.21 ± 0.084
SGREEEIAEELREKLLAEGYTEVEVEIEVRPDPNSDNVLVTVTVRATKKDAEGNWKTYEETIPVLIPAEASA [r9_440_JUSTAS]	3.12 ± 0.26
SAGGSAGGSKEVKTIKVEITITDKNGKKITVKAEIVYDKKTKKYYIKIRNKKTNKTYIIELKLSAGGSAGGS [r20_71_TrROS_Hall]	3.29 ± 0.088
SAMKPFPAKEAIEQILEEMEDMPLPPGQEEVEFQIRLPDDGAPVQISIERNPGKWKIEIYVGNKPIWITSAG [r14_199_TrROS]	1.7 ± 0.082
SMKIVIVKNKDGTVIVRITFPNGEEITITAKTEEEAKKAIEELIKKLQEKYNIKIKIEVKPVKPGEVIEESA [r9_786_TrROS_Hall]	2.92 ± 0.093
SAGGSAGGSAGGMTPIEVTVELEEPTRRTTRRFTFTSPEEVEAYLKALPASWRVTRVELRSAGGSAGGSAGG [r17_410_JUSTAS]	1.58 ± 0.038
SAGGSAGGSASMTVRATLPNGEEIEFEADVIKADPGGDSVTVYLILPNGGEIPFEVELEEEESAGGSAGGSA [r18_163_TrMRF]	0.37 ± 0.042
SAEVRTVTDANGTQRTVTKTPDGTETVTTRPVPAPPPPPTVTVEVEYDAENGTLTVRLPDGSKLEFTFEDSA [r9_56_TrROS_Hall]	-0.118 ± 0.23
SAGGMKTIEITIKTEDGYTIKIKITEKDGKLYIEIEIEDPNMSEEQREKIKKEIEELAKKLNIKVEIPSAGG [r13_774_TrROS_Hall]	3.48 ± 0.31
SAGGGSTTTYSIPEGPLTLEVTTVTVGDGTVKKTVVTTPEGKRTEIPPSNPITIPPNWTVTSSVTLTSAGGS [r16_669_JUSTAS]	-0.114 ± 0.12
SAGGSAGGSMLVLHLPNGKEIPIPPGEFSEDTGVEDIAARIPPEVRRLRIYNEDGTEVEVPIDSAGGSAGGS [r20_161_TrMRF]	0.00521 ± 0.4
SAGGEVKVEIEVELNEDGTLRVRARVEVRVDGELVTVEVEIEVRLEPAPPPAPPPVLVVDPETGEILSAGGS [r8_269_TrROS_Hall]	3.29 ± 0.2
